# The supplement of paper PMC9112550, “Optimization of the antimicrobial peptide Bac7 by deep mutational scanning” (BMC Biology, 2022)
# Tested on: Escherichia coli TOP10
# Test: shrunken log2 fold change of peptide-encoding DNA abundance (4.5 h post-induction vs induction); higher = less antimicrobial activity (less host growth inhibition)
# Conditions: time post-induction: 4.5 h; library: site-saturation at positions 5, 18, 19, 20
# 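Note: peptides expressed intracellularly from a pBAD plasmid library in pooled LB shake-flask culture, induced with 0.3% L-arabinose, DNA abundance read by NGS, three biological replicates, DESeq2 with apeglm shrinkage.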
row,Sequence,shrunken log2 fold change
1,RRIRDRPPRLPRPRPRPLHSPRP,0.0372
2,RRIRDRPPRLPRPRPRPLIGPRP,0.239
3,RRIRDRPPRLPRPRPRPLITPRP,0.189
4,RRIRDRPPRLPRPRPRPLKWPRP,0.0491
5,RRIRDRPPRLPRPRPRPLLWPRP,0.754
6,RRIRDRPPRLPRPRPRPLMFPRP,-0.188
7,RRIRDRPPRLPRPRPRPLNHPRP,-0.154
8,RRIRDRPPRLPRPRPRPLNSPRP,0.0283
9,RRIRDRPPRLPRPRPRPLPKPRP,0.368
10,RRIRDRPPRLPRPRPRPLPYPRP,-0.0311
11,RRIRDRPPRLPRPRPRPLQAPRP,0.365
12,RRIRDRPPRLPRPRPRPLQCPRP,0.0793
13,RRIRDRPPRLPRPRPRPLQDPRP,0.115
14,RRIRDRPPRLPRPRPRPLSHPRP,-0.0109
15,RRIRDRPPRLPRPRPRPLTHPRP,0.179
16,RRIRDRPPRLPRPRPRPLTKPRP,0.0084
17,RRIRDRPPRLPRPRPRPLVKPRP,0.0947
18,RRIRDRPPRLPRPRPRPLWHPRP,0.0123
19,RRIRDRPPRLPRPRPRPLYLPRP,-0.648
20,RRIRDRPPRLPRPRPRPLYPPRP,-0.277
21,RRIRDRPPRLPRPRPRPMCNPRP,-0.0221
22,RRIRDRPPRLPRPRPRPMDPPRP,-0.0367
23,RRIRDRPPRLPRPRPRPMETPRP,-0.00149
24,RRIRDRPPRLPRPRPRPMGDPRP,0.25
25,RRIRDRPPRLPRPRPRPMGFPRP,0.258

row,Sequence,shrunken log2 fold change
1,RRIRDRPPRLPRPRPRPMHGPRP,-0.123
2,RRIRDRPPRLPRPRPRPMHVPRP,-0.00476
3,RRIRDRPPRLPRPRPRPMINPRP,0.0491
4,RRIRDRPPRLPRPRPRPMKPPRP,0.0123
5,RRIRDRPPRLPRPRPRPMKRPRP,0.108
6,RRIRDRPPRLPRPRPRPMLNPRP,0.21
7,RRIRDRPPRLPRPRPRPMLPPRP,0.16
8,RRIRDRPPRLPRPRPRPMLTPRP,0.155
9,RRIRDRPPRLPRPRPRPMNDPRP,-0.126
10,RRIRDRPPRLPRPRPRPMNMPRP,-0.308
11,RRIRDRPPRLPRPRPRPMNQPRP,-0.334
12,RRIRDRPPRLPRPRPRPMQNPRP,0.269
13,RRIRDRPPRLPRPRPRPMQSPRP,3.94
14,RRIRDRPPRLPRPRPRPMRFPRP,0.21
15,RRIRDRPPRLPRPRPRPMRTPRP,0.519
16,RRIRDRPPRLPRPRPRPMSVPRP,-0.00308
17,RRIRDRPPRLPRPRPRPMYHPRP,0.0212
18,RRIRDRPPRLPRPRPRPMYLPRP,-0.239
19,RRIRDRPPRLPRPRPRPNEKPRP,-0.0281
20,RRIRDRPPRLPRPRPRPNGYPRP,-0.36
21,RRIRDRPPRLPRPRPRPNHHPRP,-0.539
22,RRIRDRPPRLPRPRPRPNHTPRP,-0.0643
23,RRIRDRPPRLPRPRPRPNIRPRP,-0.0481
24,RRIRDRPPRLPRPRPRPNISPRP,-0.266
25,RRIRDRPPRLPRPRPRPNKAPRP,0.0205

row,Sequence,shrunken log2 fold change
1,RRIRDRPPRLPRPRPRPNLEPRP,0.27
2,RRIRDRPPRLPRPRPRPNLNPRP,-0.229
3,RRIRDRPPRLPRPRPRPNMAPRP,-0.144
4,RRIRDRPPRLPRPRPRPNNAPRP,-0.204
5,RRIRDRPPRLPRPRPRPNNLPRP,-0.556
6,RRIRDRPPRLPRPRPRPNSLPRP,0.0174
7,RRIRDRPPRLPRPRPRPNSNPRP,-0.573
8,RRIRDRPPRLPRPRPRPNTIPRP,-0.456
9,RRIRDRPPRLPRPRPRPNWNPRP,-0.1
10,RRIRDRPPRLPRPRPRPNYCPRP,0.0253
11,RRIRDRPPRLPRPRPRPNYDPRP,-0.211
12,RRIRDRPPRLPRPRPRPPAFPRP,0.192
13,RRIRDRPPRLPRPRPRPPANPRP,0.0989
14,RRIRDRPPRLPRPRPRPPCDPRP,-0.0123
15,RRIRDRPPRLPRPRPRPPCKPRP,-0.129
16,RRIRDRPPRLPRPRPRPPCNPRP,-0.424
17,RRIRDRPPRLPRPRPRPPCTPRP,0.00986
18,RRIRDRPPRLPRPRPRPPDVPRP,0.302
19,RRIRDRPPRLPRPRPRPPELPRP,0.107
20,RRIRDRPPRLPRPRPRPPFCPRP,0.284
21,RRIRDRPPRLPRPRPRPPFKPRP,0.18
22,RRIRDRPPRLPRPRPRPPFVPRP,0.0811
23,RRIRDRPPRLPRPRPRPPGPPRP,1.9
24,RRIRDRPPRLPRPRPRPPHGPRP,0.294
25,RRIRDRPPRLPRPRPRPPHHPRP,-0.0964
